Results: article PMC6336196 (Nature, 2018)
Like-named read-outs stand apart in the source and are kept apart here.

B1: Danio rerio (zebrafish) mitochondrial calcium uniporter (natural protein, zebrafish (Danio rerio), UniProt Q08BI9 35-376, looked up)
chain: QGTKTEALSMSLGGHQTVRRAHGLRTGGRCALFCHPSATLTAQGWKGSPSWQVQRLLCSPAAEDVSVVYQNGLPVISVRLPSRRERCQFTLKPLSDTVGVFLQQLQAEDRGIDRVTIYSADGARIASSTGIDILLMDNFKLVINDTSYLVQPPRRDLLPHEDGERLNDVKILVQQLYTTLRIEEHQLNKERELIGRLEDLNSQLQPLEKVKEELSKKAERRTTWVLWGGMAYMATQFGILARLTWWEYSWDIMEPVTYFITYGTAMAMYAYFVLTRQEYLYPDARDRQYLLFFHRGAKRTRFDIEKYNKLKDAIAEAELDLKRLRDPLQLNLPIQQIDTSKD
B2: Cyphellophora europaea mitochondrial calcium uniporter (natural protein, UniProt W2SDE2 1-346, looked up)
chain: MTKGKLLTTPSRLLKLVLPLSTVDHNTDRKDVAPLALLVHPQQPLSYLERLIQAELPPPDPQDSKSTTRSVTFRAMEAKDDEIKPRKKADTEGGGGSDGSVQSYSGAGREGEGKDEGEFVRWSPSTEIGDFIRDAARAKEFEVEIEGSPGVIKVAVPSFNDRTYYLRQRLRRTSRKISKLAAIKEECDKAAHRGAQRIALAGCGGLIGYWYIVYRLTFETDLGWDVMEPVTYLVGLSTLIGGYMWFLWHNREVSYRSALNITVSARQNKLYQAKGFSLQDWEGYLEEANAMRREIKAVASEYDVDWNETQDEGGDEKVTKALRDERKNNNGTKNKSKEGEEDDEDD

Columns and labels:
[1] = target: the molecule itself; assay: cryo-EM structure
[2] = target: the molecule itself; assay: cryo-EM structure; remark: listed apart in the source

Protein | stoichiometry N [1] | stoichiometry N [2]
B1 | 4 | –
B2 | – | 4
